Data reported in patent publication US20100272689A1, “Protease Having Algicidal Activity, Gene Encoding the Same and Algicidal Formulation Comprising the Same” (KOREA OCEAN RESEARCH & DEVELOPMENT INSTITUTE, priority 2007, published 2010).
Values joined by “and” are separate entries in the source; they are usually repeats but may differ in a detail not shown here. Equal entries are not always repeated.

Tests used:
gelatin [1] = experiment: Protease activity by electrophoresis on gelatin substrate gel; assay type: biochemical; settings: refolded protein, FIG. 7
Procedure: Protease activity of proteases obtained according to Example 6 was measured using electrophoresis on gelatin substrate gel [Park, H. I., J. Biol. Chem., 275:20540-20544, 2000].

[2] = Procedure: To observe protein processing of the protease having algicidal activity according to the present invention, analysis of protease activity was performed as the same method of Example 7 except 10476—8 protein (SEQ ID NO: 26) which was reacted at 4° C. for a week, and then that was confirmed by SDS-PAGE (FIG. 8).
gelatin [3] = experiment: Protease activity at various temperature and pH; assay type: biochemical
Procedure: 10476—7 protein (SEQ ID NO: 27) containing only mature protein was suspended with SDS in combination with stabilization by using EDTA and resistance to detergent, and refolded by dilution using buffer solution containing 50 mM Tris-HCl, 1 mM EDTA and 1% triton X-100 except SDS, and then protease activity was measured at various temperature and pH according to the method as described above [Park, H. I., J. Biol. Chem., 275:20540-20544, 2000]. The results are shown in FIG. 9 and FIG. 10, respectively.

gelatin [4] = experiment: Protease activity with zinc or calcium ion (gelatin, TCA supernatant); assay type: biochemical; settings: 0.1% gelatin, pH 8.0, 20° C., 2 hr
Procedure: Also, 5 μg of refolded protein was added to buffer solution containing 0.1% gelatin, 50 mM Tris-HCl (pH 8.0), 100 mM KCl and 1 mM zinc or calcium ion, incubated at 20° C. for 2 hr, and then 5% TCA solution (w/v) was added to the solution, followed by stand for 10 min on ice. After centrifugation for 5 min at 10,000 rpm, the protein was measured using the supernatant. Inhibition of protease activity by metal ions was measured by comparing with control group without metal ion.

[5] = tested on: Cochlodinium polykrikoides; experiment: Algicidal activity by cell count after 24 hr (Lugol staining); assay type: cell-based; settings: 50 μl of protein (100 μg/ml), after 24 hr; for Cell number: ( ): standard deviation
Procedure: Organisms used as host for algicidal bacteria screen are Cochlodinium polykrikoides, Thalassiosira sp., Heterosigma akashiwo, Skeletonema costatum, Alexandrium sp., Gymnodium sp., Chaetoceros cuvisetus. Each algae cell was grown to log phase in F/2 broth (0.075 g NaNO3, 0.005 g NaH2PO4?H2O, 0.030 g Na2SiO3?9H2O, 1 ml F/2 trace metal solution, 1 ml F/2 vitamin solution and 1,000 ml aged seawater) [Stein, Handbook of phycological methods, Cambridge Univ. Press, 1973].
The cultured red tide organisms were diluted in F/2 broth to a final density of 0.05 (excitation wavelength=434 nm, emission wavelength=670 nm)on the fluorescent intensity using fluoro-spectrophotometer (Hitachi, Japan), and then 2.7 ml aliquots were dispensed into several test tubes (110 mm×10 mm) to prepare for the MPN (most probable number) method.
To measure algicidal activity of 10476—7 protein (SEQ ID NO:27), 50 μl of said protein (100 μg/ml) was added to the culture solutions of Cochlodinium polykrikoides, Thalassiosira sp., Heterosigma akashiwo, Skeletonema costatum, Alexandrium sp., Chaetoceros cuvisetus and Gymnodniium sp. which were prepared in Example 2. After 24 hr, said culture solutions were stained with 1% Lugol's iodine solution, and then the cell number was counted. Experimental groups with protease (experimental group 1 and 2) were compared with control group without protease in cell number and the degree of inhibition.
To check algicidal activity of proteins isolated Flavobacterium johnsoniae UW101 (ZP—01247095, SEQ ID NO: 4), Croceibacter atlanticus HTCC2559 (ZP—00951344, SEQ ID NO: 5), Leeuwenhoekiella blandensis MED217 (ZP—01059780, SEQ ID NO: 6) and Kordia algicida KAOT1—11562 (SEQ ID NO: 7), 50 μl of said protein (100 μg/ml) was added to the culture solutions of Cochlodinium polykrikoides, Thalassiosira sp., Heterosigma akashiwo, Skeletonema costatum, Alexandrium sp., Chaetoceros cuvisetus, and Gymnodium sp., which were prepared in Example 2. After 24 hr, said culture solutions were stained with 1% Lugol's iodine solution, and then the cell number was counted.
Experimental groups with protease (experimental group 1 and 2) were compared with control group without protease in cell number and the degree of inhibition.

B1: 10476—8: protein containing processing peptide and mature protein, without the signal peptide part (protein, listed as Kordia algicida)
chain: VVDEEQDTAIGIPQDVLQKAQSLHFNTFDMQEASFEKPNGKIEEGYMMEGDIFFTRDQLMNMELGGDITSKQYRTNNLVSPGVITIIGYTGNNSNGLTTKMQTGLRWAVDNYNALNLSISFQLTFGTDYQNKDMVVYQVQGGAGGSAGFPSGGNPYKWVKINSGMAPYSNNVHEHVIGHEIGHSIGFRHSDYFSRQSCGQNSNEGSAGVGAIHIPGTPTGWDPTSLMNACFSSSEDGEFNGNDITALNFLY
modifications: KAOT1_10476 of Kordia algicida OT-1 lacking signal peptide
notes: protein containing processing peptide and mature protein, without the signal peptide part
Gelatin [1]
  Protease activity: showed protease activity
[2]
  Time until turned into mature protease by degradation of processing peptide: 3 days

B2: 10476—7: protein containing only mature protein, without signal peptide and processing peptide (protein, listed as Kordia algicida)
chain: QYRTNNLVSPGVITIIGYTGNNSNGLTTKMQTGLRWAVDNYNALNLSISFQLTFGTDYQNKDMVVYQVQGGAGGSAGFPSGGNPYKWVKINSGMAPYSNNVHEHVIGHEIGHSIGFRHSDYFSRQSCGQNSNEGSAGVGAIHIPGTPTGWDPTSLMNACFSSSEDGEFNGNDITALNFLY
modifications: KAOT1_10476 of Kordia algicida OT-1 lacking signal and processing peptide
Gelatin [1]
  Protease activity: showed protease activity
Gelatin [3]; FIG. 9
  Temperature of optimal protease activity: about 20 °C
Gelatin [3]; FIG. 10
  pH of optimal protease activity: 7-8
Gelatin [4]; FIG. 11
  Effect of zinc ion on protease activity: inhibition of 10476—7 protein activity by zinc ion was confirmed
Gelatin [4]; FIG. 12
  Calcium ion concentration of maximal protease activity: 80 to 100 mM
[5]; experimental group 1
  The degree of inhibition (%): 40.7%
  Cell number: 960(30) cell/ml and 940(60) cell/ml
[5]; experimental group 2
  The degree of inhibition (%): 30.0%
  Cell number: 1040(90) cell/ml and 900(110) cell/ml
